According to patent US7749694:

How the values were obtained:
[1] = biological target: pertactin ectodomain (Prn-E) (Bordetella (species not stated)); experiment: static light scattering
[2] = biological target: pertactin ectodomain (Prn-E) (Bordetella (species not stated)); experiment: isothermal titration calorimetry (ITC)

## Mtd-P1 (major tropism determinant variant of Bordetella bacteriophage BPP-1) (from UniProt Q775D6 1-381)
[1]
  stoichiometry of association between Mtd and Prn-E (Mtd monomers per Prn-E (ratio 3:1)): 3
[2]
  Kd: 3000 nM
